B1: GpH7-A5/GpH7-B3 variant E333_13S/GpL16-k0 (He Ab) (antibody, human IgG1, kappa)
heavy 1: not shown
heavy 2: not shown
light: DIVMTQSPLSLPVTPGEPASISCQASESLVHSNRNTYLHWYLQKPGQSPQLLIYKVSNRFSGVPDRFSGSGSGTDFTLKISRVEAEDVGVYYCSQNTHVPPTFGQGTKVEIERTVAAPSVFIFPPSDEQLKSGTASVVCLLNNFYPREAKVQWKVDNALQSGNSQESVTEQDSKDSTYSLSSTLTLSKADYEKHKVYACEVTHQGLSSPVTKSFNRGEC
notes: He Ab: alteration only in the GpH7-B3 chain
B2: GpH7-A5/GpH7-B3 variant G236_20W/GpL16-k0 (He Ab) (antibody, human IgG1, kappa)
heavy 1: not shown
heavy 2: not shown
light: DIVMTQSPLSLPVTPGEPASISCQASESLVHSNRNTYLHWYLQKPGQSPQLLIYKVSNRFSGVPDRFSGSGSGTDFTLKISRVEAEDVGVYYCSQNTHVPPTFGQGTKVEIERTVAAPSVFIFPPSDEQLKSGTASVVCLLNNFYPREAKVQWKVDNALQSGNSQESVTEQDSKDSTYSLSSTLTLSKADYEKHKVYACEVTHQGLSSPVTKSFNRGEC
notes: He Ab: alteration only in the GpH7-B3 chain; also called GpH7-A5/GpH7-B3-03-20W/GpL16-k0
B3: GpH7-A5/GpH7-B3 variant I336_01G/GpL16-k0 (He Ab) (antibody, human IgG1, kappa)
heavy 1: not shown
heavy 2: not shown
light: DIVMTQSPLSLPVTPGEPASISCQASESLVHSNRNTYLHWYLQKPGQSPQLLIYKVSNRFSGVPDRFSGSGSGTDFTLKISRVEAEDVGVYYCSQNTHVPPTFGQGTKVEIERTVAAPSVFIFPPSDEQLKSGTASVVCLLNNFYPREAKVQWKVDNALQSGNSQESVTEQDSKDSTYSLSSTLTLSKADYEKHKVYACEVTHQGLSSPVTKSFNRGEC
notes: as for B1
B4: GpH7-A5/GpH7-B3 variant I336_02A/GpL16-k0 (He Ab) (antibody, human IgG1, kappa)
heavy 1: not shown
heavy 2: not shown
light: DIVMTQSPLSLPVTPGEPASISCQASESLVHSNRNTYLHWYLQKPGQSPQLLIYKVSNRFSGVPDRFSGSGSGTDFTLKISRVEAEDVGVYYCSQNTHVPPTFGQGTKVEIERTVAAPSVFIFPPSDEQLKSGTASVVCLLNNFYPREAKVQWKVDNALQSGNSQESVTEQDSKDSTYSLSSTLTLSKADYEKHKVYACEVTHQGLSSPVTKSFNRGEC
notes: as for B1
B5: GpH7-A5/GpH7-B3 variant I336_03V/GpL16-k0 (He Ab) (antibody, human IgG1, kappa)
heavy 1: not shown
heavy 2: not shown
light: DIVMTQSPLSLPVTPGEPASISCQASESLVHSNRNTYLHWYLQKPGQSPQLLIYKVSNRFSGVPDRFSGSGSGTDFTLKISRVEAEDVGVYYCSQNTHVPPTFGQGTKVEIERTVAAPSVFIFPPSDEQLKSGTASVVCLLNNFYPREAKVQWKVDNALQSGNSQESVTEQDSKDSTYSLSSTLTLSKADYEKHKVYACEVTHQGLSSPVTKSFNRGEC
notes: as for B1
B6: GpH7-A5/GpH7-B3 variant I336_04F/GpL16-k0 (He Ab) (antibody, human IgG1, kappa)
heavy 1: not shown
heavy 2: not shown
light: DIVMTQSPLSLPVTPGEPASISCQASESLVHSNRNTYLHWYLQKPGQSPQLLIYKVSNRFSGVPDRFSGSGSGTDFTLKISRVEAEDVGVYYCSQNTHVPPTFGQGTKVEIERTVAAPSVFIFPPSDEQLKSGTASVVCLLNNFYPREAKVQWKVDNALQSGNSQESVTEQDSKDSTYSLSSTLTLSKADYEKHKVYACEVTHQGLSSPVTKSFNRGEC
notes: as for B1
B7: GpH7-A5/GpH7-B3 variant I336_06M/GpL16-k0 (He Ab) (antibody, human IgG1, kappa)
heavy 1: not shown
heavy 2: not shown
light: DIVMTQSPLSLPVTPGEPASISCQASESLVHSNRNTYLHWYLQKPGQSPQLLIYKVSNRFSGVPDRFSGSGSGTDFTLKISRVEAEDVGVYYCSQNTHVPPTFGQGTKVEIERTVAAPSVFIFPPSDEQLKSGTASVVCLLNNFYPREAKVQWKVDNALQSGNSQESVTEQDSKDSTYSLSSTLTLSKADYEKHKVYACEVTHQGLSSPVTKSFNRGEC
notes: as for B1
B8: GpH7-A5/GpH7-B3 variant I336_10E/GpL16-k0 (He Ab) (antibody, human IgG1, kappa)
heavy 1: not shown
heavy 2: not shown
light: DIVMTQSPLSLPVTPGEPASISCQASESLVHSNRNTYLHWYLQKPGQSPQLLIYKVSNRFSGVPDRFSGSGSGTDFTLKISRVEAEDVGVYYCSQNTHVPPTFGQGTKVEIERTVAAPSVFIFPPSDEQLKSGTASVVCLLNNFYPREAKVQWKVDNALQSGNSQESVTEQDSKDSTYSLSSTLTLSKADYEKHKVYACEVTHQGLSSPVTKSFNRGEC
notes: as for B1
B9: GpH7-A5/GpH7-B3 variant I336_18N/GpL16-k0 (He Ab) (antibody, human IgG1, kappa)
heavy 1: not shown
heavy 2: not shown
light: DIVMTQSPLSLPVTPGEPASISCQASESLVHSNRNTYLHWYLQKPGQSPQLLIYKVSNRFSGVPDRFSGSGSGTDFTLKISRVEAEDVGVYYCSQNTHVPPTFGQGTKVEIERTVAAPSVFIFPPSDEQLKSGTASVVCLLNNFYPREAKVQWKVDNALQSGNSQESVTEQDSKDSTYSLSSTLTLSKADYEKHKVYACEVTHQGLSSPVTKSFNRGEC
notes: as for B1
B10: GpH7-A5/GpH7-B3 variant K326_14T/GpL16-k0 (He Ab) (antibody, human IgG1, kappa)
heavy 1: not shown
heavy 2: not shown
light: DIVMTQSPLSLPVTPGEPASISCQASESLVHSNRNTYLHWYLQKPGQSPQLLIYKVSNRFSGVPDRFSGSGSGTDFTLKISRVEAEDVGVYYCSQNTHVPPTFGQGTKVEIERTVAAPSVFIFPPSDEQLKSGTASVVCLLNNFYPREAKVQWKVDNALQSGNSQESVTEQDSKDSTYSLSSTLTLSKADYEKHKVYACEVTHQGLSSPVTKSFNRGEC
notes: as for B1
B11: GpH7-A5/GpH7-B3 variant K326_15Y/GpL16-k0 (He Ab) (antibody, human IgG1, kappa)
heavy 1: not shown
heavy 2: not shown
light: DIVMTQSPLSLPVTPGEPASISCQASESLVHSNRNTYLHWYLQKPGQSPQLLIYKVSNRFSGVPDRFSGSGSGTDFTLKISRVEAEDVGVYYCSQNTHVPPTFGQGTKVEIERTVAAPSVFIFPPSDEQLKSGTASVVCLLNNFYPREAKVQWKVDNALQSGNSQESVTEQDSKDSTYSLSSTLTLSKADYEKHKVYACEVTHQGLSSPVTKSFNRGEC
notes: as for B1

The binders below were run against T1, FcγRIa extracellular domain with C-terminal His tag (human, UniProt P12314 16-292) (assay: SPR Biacore, antibody captured, FcγRIa analyte; vs GpH7-A5/GpH7-B3/GpL16-k0 = 100).
T1 construct: extracellular domain; Expressed in FreeStyle293 cells; analyte in Biacore; also called FcgRI; FcgRIa
T1 sequence (P12314 16-292): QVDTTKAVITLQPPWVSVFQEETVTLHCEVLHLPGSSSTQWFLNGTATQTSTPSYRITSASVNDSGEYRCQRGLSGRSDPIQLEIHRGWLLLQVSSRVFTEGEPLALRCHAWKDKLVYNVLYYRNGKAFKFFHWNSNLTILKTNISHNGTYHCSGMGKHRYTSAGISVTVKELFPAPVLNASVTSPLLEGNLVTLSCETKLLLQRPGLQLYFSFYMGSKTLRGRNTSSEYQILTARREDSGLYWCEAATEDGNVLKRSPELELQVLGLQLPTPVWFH

Row | Binder | He/Con_1a
1 | B1 | 103 relative (control = 100)
2 | B2 | 105 relative (control = 100)
3 | B3 | 109 relative (control = 100)
4 | B4 | 106 relative (control = 100)
5 | B5 | 105 relative (control = 100)
6 | B6 | 106 relative (control = 100)
7 | B7 | 108 relative (control = 100)
8 | B8 | 108 relative (control = 100)
9 | B9 | 108 relative (control = 100)
10 | B10 | 104 relative (control = 100)
11 | B11 | 106 relative (control = 100)

Reference: patent publication US20180155451A1 (published 2018)
